Measurements: the supplement of paper PMC9170038

Test system: MS2 coat protein
Assay: apparent KD of MS2 coat protein; designed switch direction (-1 OFF switch, 1 ON switch): -1; higher = weaker reporter binding
Procedure, shortened: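 Designed RNA switches were transcribed on Illumina chips by stalled E. coli RNA polymerase and titrated with SNAP-549-labelled MS2 coat protein from 0.7 or 1.5 nM, doubling to 3 µM. Step length ran from 0.8–1.5 h at the lowest concentration to 10–20 min at the highest. The apparent KD is the median over clusters for each design, from curve-fitted normalised cluster fluorescence.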

[1] = Eterna round: R95, input ligand: FMN 200 uM
[2] = Eterna round: R95, input ligand: microRNA oligo, concentration not stated
[3] = Eterna round: R95, input ligand: none
[4] = input ligand: microRNA oligo, concentration not stated

Sequence | apparent KD of MS2 coat protein (input ligand: FMN 200 uM) [nM] | apparent KD of MS2 coat protein (input ligand: none) [nM] | apparent KD of MS2 coat protein [2] [nM] | further results
UAUUAGUAAGGAUAUGCGACGUAGGACGAAAGUCCUACGUCGCAGAAGGUACAUGAGGAUCACCCAUGUCUAUU [Mod of Fisker 11 - Jieux - Exclusion 4] (Eterna round: R97, puzzle: Exclusion 4) | 20.5 | 18.7 |  | 
UAUUAUCAAGCAAGAUCCUACAUGAGGAUCACCCAUGUGCUCGUCUUAUAAGGUACUGUGACGAAAGUCACGGUACC [Sensor 3, v1 - 73] (puzzle: Sensor v3, turn-off variant 1) |  |  | 107 | apparent KD of MS2 coat protein [1]: 107 nM; apparent KD of MS2 coat protein [3]: 153 nM
UAUUAUCAAGUAAGAUCCUACAUGAGGAUCACCCAUGUGCUCGUCUUAUAAGGUACUGUGACGAAAGUCACGGUACC [Sensor 3, v1 - 74] (puzzle: Sensor v3, turn-off variant 1) |  |  | 332 | apparent KD of MS2 coat protein [1]: 31.3 nM; apparent KD of MS2 coat protein [3]: 33.8 nM
UAUUCGCAAGCAAAUGGGUACAUGAGGAUCACCCAUGUGCUCGUCUUAUAAGGUACUGUGACGAAAGUCACGGUACC [mod--Eli9] (Eterna round: R97, puzzle: Sensor, turn-off variant 1) | 20.9 | 20.3 |  | 
UAUUGUAGACAGGAUAUCUAUCGGGUAACCCGAAGAGAAGGGUCUACAUGAGGAUCACCCAUGUGGCCCGUUUU [EX6 B.29] (Eterna round: R97, puzzle: Exclusion 6) | 42 | 21.5 |  | 
UAUUUAAGAGGAUAUACAUGAGGAUCACCCAUGUAUAUUAAAAUACAUGAUUUUUUAUGUAGAAGGCUUGGGUA [-21.5, -18.3 kcal, 35% A] (Eterna round: R97, puzzle: Exclusion 3) | 23.6 | 16.9 |  | 
UAUUUACGAGGAUAUCGUUUUUUUCACAUGAGGAUCACCCAUGUUGUUUAUGUUGCGUUGCGAGAAGGCGUUUGUU [JR_E5_Sub062] (puzzle: Exclusion 5) |  |  | 26.6 | 
UAUUUAGCAAGCAGAUCCUACAUGAGGAUCACCCAUGUGCUCUGAAAUAACGCAGAAUUACUGCGAGCUCGUCUUAU [Winner reversed engineered 27] (Eterna round: R97, puzzle: Sensor, turn-off variant 1) | 85.7 | 120 |  | 
UAUUUAUAGCAAGGAUAUGAUUAUUAUUAUUUAUCAGAAGGUGCACAUGAGGAUCACCCAUGUUUUACAAUUUGUAAUUUAAUU [Default title] (Eterna round: R96, puzzle: Exclusion NG 1) |  |  |  | apparent KD of MS2 coat protein [4]: 31.1 nM
UAUUUAUAUGAAGGAUAUACUUAACAUGAGGAUCACCCAUGUGGUGUUGUGAGUGAGUGAGUUUAGUAGAAGGUCAAUUAUUUU [JMF's solution 30] (Eterna round: R96, puzzle: Exclusion NG 2) | 282 | 222 |  | apparent KD of MS2 coat protein [4]: 131 nM
UAUUUGCAAGCGAGAUCCCACAUGAGGAUCACCCAUGUGCUCGUCUUAUAAGGUACUGUGACGAGAGUCACGGUACC [Mat - Sensor, turn-off var - Eli Mod - D90] (Eterna round: R97, puzzle: Sensor, turn-off variant 1) | 15 | 15.6 |  | 
UAUUUGCAAGGAUAUGAUUUAAGUAACAUGAGGAUCACCCAUGUUUUUCCGUUGUUAUGUUCAGAAGGUGCGUGAU [JR_E5_Sub020] (puzzle: Exclusion 5) |  |  | 50.9 | 
UCAACGCAAGGAUAUACUUGCGGUGAUGUUCGAAUUCUUCUACUUGAGGAUCACCCAAGUAGAAGGUGCGGUGA [jl-ex2.4.64 ViennaUCT mod] (Eterna round: R97, puzzle: Exclusion 2) | 14 | 13.1 |  | 
UCAAGUAUGUAGGAUAUGAUGUGAUUCUACAUAUCAGAAGGACGUACAUGAGGAUCACCCAUGUAACUUGCAUG [Exclusion 6 - B - 12:d] (puzzle: Exclusion 6) |  |  | 33.1 | apparent KD of MS2 coat protein [1]: 96.2 nM; apparent KD of MS2 coat protein [3]: 32 nM
